According to doi:10.1101/2023.09.15.557927 (bioRxiv, 2023):
No end group written: not given here. *: point of attachment. FITC = O=C1OC2(c3ccc(O)cc3Oc3cc(O)ccc32)c2ccc(NC(=S)*)cc21

What was measured:
[1] = biological target: T1, 6xHis-tagged LC8 (DYNLL2) (human, UniProt Q96FJ2 1-89); assay: fluorescence polarisation
[2] = biological target: T1, 6xHis-tagged LC8 (DYNLL2); assay: SPR
Target sequence in this assay (Q96FJ2 whole entry): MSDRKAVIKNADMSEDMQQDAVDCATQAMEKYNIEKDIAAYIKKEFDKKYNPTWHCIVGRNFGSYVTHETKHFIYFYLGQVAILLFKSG

| Binder | Kd [1] [µM] | Kd [2] [µM] | binding result [1] |
| --- | --- | --- | --- |
| KESCNMETQTS [OFD1 peptide (KESCNMETQTS)] | 12.8 | 12.5 ± 1.3 | – |
| {FITC}-TSQEDKATQTL [FITC-labeled BMF peptide (FITC-TSQEDKATQTL)] | – | – | binds |
